# Test results: ChEMBL document CHEMBL3576833, “Design and Synthesis of Acetylenyl Benzamide Derivatives as Novel Glucokinase Activators for the Treatment of T2DM” (ACS Med Chem Lett, 2015)
# Compound: COC[C@H](C)Oc1cc(C#Cc2cccc(N)c2)cc(C(=O)Nc2ccn(C)n2)c1
# Test: Activation of recombinant human pancreatic glucokinase using 10 mM glucose as substrate assessed as enzyme Vmax by G6PDH coupled assay
protein,measurement,value
"Hexokinase-4 (Homo sapiens), P35557 (protein) MLDDRARMEAAKKEKVEQILAEFQLQEEDLKKVMRRMQKEMDRGLRLETHEEASVKMLPTYVRSTPEGSEVGDFLSLDLGGTNFRVMLVKVGEGEEGQWSVKTKHQMYSIPEDAMTGTAEMLFDYISECISDFLDKHQMKHKKLPLGFTFSFPVRHEDIDKGILLNWTKGFKASGAEGNNVVGLLRDAIKRRGDFEMDVVAMVNDTVATMISCYYEDHQCEVGMIVGTGCNACYMEEMQNVELVEGDEGRMCVNTEWGAFGDSGELDEFLLEYDRLVDESSANPGQQLYEKLIGGKYMGELVRLVLLRLVDENLLFHGEASEQLRTRGAFETRFVSQVESDTGDRKQIYNILSTLGLRPSTTDCDIVRRACESVSTRAAHMCSAGLAGVINRMRESRSEDVMRITVGVDGSVYKLHPSFKERFHASVRRLTPSCEITFIESEEGSGRGAALVSAVACKKACMLGQ",Vmax,126%
